Source: paper PMC10814836

Target: lamin A/C (human (endogenous in primary myoblasts)) (UniProt P02545)
Test: proximity ligation; in situ PLA (Duolink) on methanol-fixed human myoblasts after uniaxial cyclic stretching (10% strain, 1 Hz, 4 h); anti-lamin A/C with anti-desmin or anti-plectin 1; 100 nuclei counted per replicate

UniProt P02545, sequence (P02545 1-646): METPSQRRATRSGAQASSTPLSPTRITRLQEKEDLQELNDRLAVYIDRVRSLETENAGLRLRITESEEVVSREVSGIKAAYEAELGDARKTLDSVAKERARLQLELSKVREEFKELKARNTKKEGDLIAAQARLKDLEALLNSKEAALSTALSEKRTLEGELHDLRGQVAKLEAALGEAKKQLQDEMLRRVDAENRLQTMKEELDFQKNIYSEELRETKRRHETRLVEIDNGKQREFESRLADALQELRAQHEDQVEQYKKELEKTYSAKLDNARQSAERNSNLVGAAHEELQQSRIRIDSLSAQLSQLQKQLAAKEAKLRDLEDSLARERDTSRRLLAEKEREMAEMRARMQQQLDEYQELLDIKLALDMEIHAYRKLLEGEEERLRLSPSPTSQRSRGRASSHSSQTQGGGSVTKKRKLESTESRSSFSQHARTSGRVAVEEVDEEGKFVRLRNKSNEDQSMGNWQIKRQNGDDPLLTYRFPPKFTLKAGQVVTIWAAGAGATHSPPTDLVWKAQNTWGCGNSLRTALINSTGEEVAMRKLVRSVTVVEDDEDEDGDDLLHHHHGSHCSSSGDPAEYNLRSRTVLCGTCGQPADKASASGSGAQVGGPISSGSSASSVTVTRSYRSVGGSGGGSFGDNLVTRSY

increase of PLA signal relative to non-stimulated cells: 64%
Substance: plectin 1 (natural protein)
